This assay addresses GluA3-G (GluA3(Gly439)), flip splice form, R/G-edited, as the GluA3 part of the GluA3-G–TARP-γ2 tandem construct (rat). Description: cryo-EM structure; apo state; GluA3–TARP-γ2 tandem construct purified as a complex from Expi293 cells (digitonin lysis; 50 mM Tris pH 8, 150 mM NaCl, 0.1% GDN), 2–3 mg/ml, vitrified at 4 °C.

Turning to “GluA3-G (GluA3(Gly439)), flip splice form, R/G-edited, as the GluA3 part of the GluA3-G–TARP-γ2 tandem construct (receptor)”, the stoichiometry N (as a rule, a count of units in the complex or per binding partner) came out at 4.

The record behind these values is PMC12422969.
